Like-named read-outs stand apart in the source and are kept apart here.

Km, kcat and K0.5 data for eight molecules are collected here from PMC11976700, “Engineering of Conserved Sequence Motif 1 Residues in Halohydrin Dehalogenase HheC Simultaneously Enhances Activity, Stability, and Enantioselectivity” (ACS Catalysis, 2025).

One data set has as its system T1, OC(CCl)CCl.
T1 construct: E. coli BL21(DE3); homotetramer
The experiment in a line: dehalogenation, halide release assay, Michaelis-Menten fit. To be noted: 25 mM Tris-SO4 pH 7.0, 30 °C. It counts as biochemical, Agrobacterium tumefaciens. The text has this: (§1) dehalogenation, halide release assay, Michaelis-Menten fit on HheC

The subject of a further data set is ClCC1CO1. The experiment in a line: purified protein. The following applies: 2 mM MOPS-SO4 pH 7.0, 30 °C.
Substrate in data set [1]: C1CCC2OC2C1
It counts as biochemical, Ilumatobacter coccineus. The following applies: 2 mM MOPS-SO4 pH 7.0, 22 °C, fixed azide (100 mM in table footnote, 60 mM in methods).

Substrate in data set [2]: C1CCC2OC2C1
It counts as biochemical, Ilumatobacter coccineus. To be noted: 2 mM MOPS-SO4 pH 7.0, 22 °C, fixed azide (100 mM in table footnote, 60 mM in methods). The source holds these as a separate data set.

Substrate in data set [3]: C1CCC2OC2C1
It is filed as biochemical, Ilumatobacter coccineus. The following applies: 2 mM MOPS-SO4 pH 7.0, 22 °C, fixed 100 mM azide.

Substrate in data set [4]: C1CCC2OC2C1
It counts as biochemical, Ilumatobacter coccineus. To be noted: 2 mM MOPS-SO4 pH 7.0, 22 °C, fixed azide (100 mM in table footnote, 60 mM in methods). This is another data set of the same source.

Substrate in data set [5]: OC(CCl)CCl
The experiment in a line: dehalogenation, halide release assay, Michaelis-Menten fit. It is filed as biochemical, Agrobacterium tumefaciens. To be noted: 25 mM Tris-SO4 pH 7.0, 30 °C.
Excerpt: as §1

Substrate in the data set “purified protein”: ClCC1CO1
The experiment in a line: purified protein. To be noted: 2 mM MOPS-SO4 pH 7.0, 30 °C, fixed nonsaturating azide (100 mM in table footnote, 60 mM in methods).

Where [6] appears, read: fixed nonsaturating azide (100 mM in table footnote, 60 mM in methods).

For orientation: Km means the substrate concentration at which the rate is half of its maximum. The kcat is the number of substrate molecules converted per active site and unit of time at saturation. Turning to HheC (Agrobacterium tumefaciens; F12Y), in the data set with OC(CCl)CCl, the Km is recorded as 0.98 ± 0.19 mM and the kcat was 6.30 ± 0.26 s⁻¹. Further, the K0.5 in the data set with ClCC1CO1 (setting [6]) is recorded as 14.2 ± 0.67 mM.
HheC (Agrobacterium tumefaciens; G14A): in the data set on OC(CCl)CCl, the Km is given as 0.92 ± 0.37 mM and the kcat amounted to 0.05 ± 0.00 s⁻¹. This molecule registered a K0.5 with ClCC1CO1 (fixed 100 mM azide) of 49.5 ± 1.52 mM.
For the molecule HheC (Agrobacterium tumefaciens; T7S), in the data set on OC(CCl)CCl, the Km is 0.81 ± 0.23 mM and the kcat was 1.37 ± 0.07 s⁻¹. The molecule also came in with a K0.5 in the data set with ClCC1CO1 (setting [6]) of 40.3 ± 6.88 mM.

B1: HheG (Ilumatobacter coccineus YM16-304; T13S) (protein)
chain: MSNAENRPVALISMATGYVGPALARTMADRGFDLVLHGTAGDGTMVGVEESFDSQIADLAKRGADVLTISDVDLTTRTGNQSMIERVLERFGRLDSACLVTGLIVTGKFLDMTDDQWAKVKATNLDMVFHGLQAVLPPMVAAGAGQCVVFTSATGGRPDPMVSIYGGTRAGANGIVRAVGLEHARHGVQVNAIGTNYMDFPGFLKASRADGDPERRAMIEAQVPLRRLGTMDELSSVTAGLLDGSNRFQTGQFFDFSGGWGA
notes: E. coli BL21(DE3); homotetramer
Regarding B1, the K0.5 in data set [1] was found to be 44.8 ± 1.29 mM.

B2: HheG (Ilumatobacter coccineus YM16-304) (protein)
chain: MSNAENRPVALITMATGYVGPALARTMADRGFDLVLHGTAGDGTMVGVEESFDSQIADLAKRGADVLTISDVDLTTRTGNQSMIERVLERFGRLDSACLVTGLIVTGKFLDMTDDQWAKVKATNLDMVFHGLQAVLPPMVAAGAGQCVVFTSATGGRPDPMVSIYGGTRAGANGIVRAVGLEHARHGVQVNAIGTNYMDFPGFLKASRADGDPERRAMIEAQVPLRRLGTMDELSSVTAGLLDGSNRFQTGQFFDFSGGWGA
notes: as for B1
With B2, the K0.5 in data set [2] is recorded as 39.4 ± 2.69 mM.

B3: HheG (Ilumatobacter coccineus YM16-304; G20A) (protein)
chain: MSNAENRPVALITMATGYVAPALARTMADRGFDLVLHGTAGDGTMVGVEESFDSQIADLAKRGADVLTISDVDLTTRTGNQSMIERVLERFGRLDSACLVTGLIVTGKFLDMTDDQWAKVKATNLDMVFHGLQAVLPPMVAAGAGQCVVFTSATGGRPDPMVSIYGGTRAGANGIVRAVGLEHARHGVQVNAIGTNYMDFPGFLKASRADGDPERRAMIEAQVPLRRLGTMDELSSVTAGLLDGSNRFQTGQFFDFSGGWGA
notes: as for B1
For the molecule B3, the K0.5 in data set [3] is 42.2 ± 3.64 mM.

B4: HheG (Ilumatobacter coccineus YM16-304; Y18F) (protein)
chain: MSNAENRPVALITMATGFVGPALARTMADRGFDLVLHGTAGDGTMVGVEESFDSQIADLAKRGADVLTISDVDLTTRTGNQSMIERVLERFGRLDSACLVTGLIVTGKFLDMTDDQWAKVKATNLDMVFHGLQAVLPPMVAAGAGQCVVFTSATGGRPDPMVSIYGGTRAGANGIVRAVGLEHARHGVQVNAIGTNYMDFPGFLKASRADGDPERRAMIEAQVPLRRLGTMDELSSVTAGLLDGSNRFQTGQFFDFSGGWGA
notes: as for B1
Turning to B4, the K0.5 in data set [4] stood at 66.4 ± 1.42 mM.

B5: HheC (Agrobacterium tumefaciens) (protein)
chain: MSTAIVTNVKHFGGMGSALRLSEAGHTVACHDESFKQKDELEAFAETYPQLKPMSEQEPAELIEAVTSAYGQVDVLVSNDIFAPEFQPIDKYAVEDYRGAVEALQIRPFALVNAVASQMKKRKSGHIIFITSATPFGPWKELSTYTSARAGACTLANALSKELGEYNIPVFAIGPNYLHSEDSPYFYPTEPWKTNPEHVAHVKKVTALQRLGTQKELGELVAFLASGSCDYLTGQVFWLAGGFPMIERWPGMPE
notes: as for B1
Regarding B5, in data set [5], the Km turned out to be 0.45 ± 0.14 mM and the kcat came out at 1.84 ± 0.11 s⁻¹. Further, the K0.5 in “purified protein” turned out to be 18.8 ± 1.24 mM.
